Numbering of substitutions follows the chain as printed.
T1: human GIP receptor (human, UniProt P48546 22-466)
T1 sequence (looked up): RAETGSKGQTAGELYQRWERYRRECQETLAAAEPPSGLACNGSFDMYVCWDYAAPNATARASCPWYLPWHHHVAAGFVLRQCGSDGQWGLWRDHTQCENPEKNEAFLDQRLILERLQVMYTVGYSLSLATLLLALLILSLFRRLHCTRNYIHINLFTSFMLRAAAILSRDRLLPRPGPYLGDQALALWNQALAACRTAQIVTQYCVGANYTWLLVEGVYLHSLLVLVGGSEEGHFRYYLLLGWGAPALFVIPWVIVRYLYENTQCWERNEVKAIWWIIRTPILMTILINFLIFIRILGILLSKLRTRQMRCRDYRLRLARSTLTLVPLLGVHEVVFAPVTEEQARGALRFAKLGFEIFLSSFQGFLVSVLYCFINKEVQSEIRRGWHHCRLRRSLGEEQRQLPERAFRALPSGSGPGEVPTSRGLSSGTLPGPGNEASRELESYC

T2: human GIP receptor (human) (UniProt P48546)
T2 sequence (looked up): T1 sequence (looked up)

B1: Example 432 (peptide)
peptide: YXEGTXTSDKXIXLDXKAQXXFIXXLIEGGPSSGAPPPS
modifications: Y-Aib-EGT-αMeF(2F)-TSDK((2-[2-(2-Amino-ethoxy)-ethoxy]-acetyl)3-(γ-Glu)-CO-(CH2)10-CH3)-Aib-I-αMeL-LD-Orn-K((2-[2-(2-Amino-ethoxy)-ethoxy]-acetyl)3-(γ-Glu)-CO-(CH2)10-CH3)AQ-Aib-Orn-FI-(D-Glu)-αMeY-LIEGGPSSGAPPPS-NH2
B2: Example 436 (peptide)
peptide: B1 peptide with X21E, F22X
modifications: Y-Aib-EGT-αMeF(2F)-TSDK((2-[2-(2-Amino-ethoxy)-ethoxy]-acetyl)3-(γ-Glu)-CO-(CH2)10-CH3)-Aib-I-αMeL-LD-Orn-K((2-[2-(2-Amino-ethoxy)-ethoxy]-acetyl)3-(γ-Glu)-CO-(CH2)10-CH3)AQ-Aib-E-αMeF-I-(D-Glu)-αMeY-LIEGGPSSGAPPPS-NH2
B3: Example 445 (peptide)
peptide: B1 peptide with X16G, X21E
modifications: Y-Aib-EGT-αMeF(2F)-TSDK((2-[2-(2-Amino-ethoxy)-ethoxy]-acetyl)2-(γ-Glu)-CO-(CH2)10-CH3)-Aib-I-αMeL-LDGK((2-[2-(2-Amino-ethoxy)-ethoxy]-acetyl)2-(γ-Glu)-CO-(CH2)10-CH3)AQ-Aib-EFI-(D-Glu)-αMeY-LIEGGPSSGAPPPS-NH2
B4: Example 426 (peptide)
peptide: B1 peptide with K10X, X21K
modifications: Y-Aib-EGT-αMeF(2F)-TSD-4Pal-Aib-I-αMeL-LD-Orn-K((2-[2-(2-Amino-ethoxy)-ethoxy]-acetyl)-(γ-Glu)-CO-(CH2)10-CH3)AQ-Aib-K((2-[2-(2-Amino-ethoxy)-ethoxy]-acetyl)-(γ-Glu)-CO-(CH2)10-CH3)FI-(D-Glu)-αMeY-LIEGGPSSGAPPPS-NH2
B5: Example 421 (peptide)
peptide: B1 peptide with X21E
modifications: Y-Aib-EGT-αMeF(2F)-TSDK((2-[2-(2-Amino-ethoxy)-ethoxy]-acetyl)3-(γ-Glu)-CO-(CH2)10-CH3)-Aib-I-αMeL-LD-Orn-K((2-[2-(2-Amino-ethoxy)-ethoxy]-acetyl)3-(γ-Glu)-CO-(CH2)10-CH3)AQ-Aib-EFI-(D-Glu)-αMeY-LIEGGPSSGAPPPS-NH2
B6: Example 488 (peptide)
peptide: B1 peptide with K10X, K17Q, X21K, E28K
modifications: Y-Aib-EGT-αMeF(2F)-TSD-4Pal-Aib-I-αMeL-LD-Orn-QAQ-Aib-K((2-[2-(2-Amino-ethoxy)-ethoxy]-acetyl)2-(γ-Glu)-CO-(CH2)12-CO2H)FI-(D-Glu)-αMeY-LIK((2-[2-(2-Amino-ethoxy)-ethoxy]-acetyl)2-(γ-Glu)-CO-(CH2)12-CO2H)GGPSSGAPPPS-NH2
B7: Example 429 (peptide)
peptide: B1 peptide with X21E, F22X
modifications: Y-Aib-EGT-αMeF(2F)-TSDK((2-[2-(2-Amino-ethoxy)-ethoxy]-acetyl)2-(γ-Glu)-CO-(CH2)10-CH3)-Aib-I-αMeL-LD-Orn-K((2-[2-(2-Amino-ethoxy)-ethoxy]-acetyl)2-(γ-Glu)-CO-(CH2)10-CH3)AQ-Aib-E-αMeF-I-(D-Glu)-αMeY-LIEGGPSSGAPPPS-NH2
B8: Example 434 (peptide)
peptide: B1 peptide with K10X, E28K
modifications: Y-Aib-EGT-αMeF(2F)-TSD-4Pal-Aib-I-αMeL-LD-Orn-K((2-[2-(2-Amino-ethoxy)-ethoxy]-acetyl)3-(γ-Glu)-CO-(CH2)10-CH3)AQ-Aib-Orn-FI-(D-Glu)-αMeY-LIK((2-[2-(2-Amino-ethoxy)-ethoxy]-acetyl)3-(γ-Glu)-CO-(CH2)10-CH3)GGPSSGAPPPS-NH2
B9: Example 430 (peptide)
peptide: B1 peptide with K10X, X21K, F22X
modifications: not fully specified; Y-Aib-EGT-αMeF(2F)-TSD-4Pal-Aib-I-αMeL-LD-Orn-K((2-[2-(2-Amino-ethoxy)-ethoxy]-acetyl)2-(γ Glu)-CO-(CH2)10H3)AQ-Aib-K((2-[2-(2-Amino-ethoxy)-ethoxy]-acetyl)2-(γGlu)-CO-(CH2)10C3)-αMeFI-(D-Glu)-αMeY-LIEGGPSSGAPPPS-NH2
B10: Example 419 (peptide)
peptide: B1 peptide with K10X, X21T, E28K
modifications: Y-Aib-EGT-αMeF(2F)-TSD-4Pal-Aib-I-αMeL-LD-Orn-K((2-[2-(2-Amino-ethoxy)-ethoxy]-acetyl)2-(γ-Glu)-CO-(CH2)10-CH3)AQ-Aib-TFI-(D-Glu)-αMeY-LIK((2-[2-(2-Amino-ethoxy)-ethoxy]-acetyl)2-(γ-Glu)-CO-(CH2)10-CH3)GGPSSGAPPPS-NH2
B11: Example 438 (peptide)
peptide: B1 peptide with K10X, X21E, F22X, E28K
modifications: Y-Aib-EGT-αMeF(2F)-TSD-4Pal-Aib-I-αMeL-LD-Orn-K((2-[2-(2-Amino-ethoxy)-ethoxy]-acetyl)3-(γ-Glu)-CO-(CH2)10-CH3)AQ-Aib-E-αMeF-I-(D-Glu)-αMeY-LIK((2-[2-(2-Amino-ethoxy)-ethoxy]-acetyl)3-(γ-Glu)-CO-(CH2)10-CH3)GGPSSGAPPPS-NH2

target: human GLP-1 receptor (human, UniProt P43220 24-463); assay: cell-based or functional assay

| Binder | cAMP EC50 (1.0% HSA) | cAMP Emax (1.0% HSA) |
| --- | --- | --- |
| B1 | 1.28 nM | – |
| B2 | 4.98 nM | – |
| B3 | 13.1 nM | 100% |
| B4 | 29.7 nM | – |
| B5 | 2.01 nM | – |
| B6 | 13 nM | – |
| B7 | 17.3 nM | – |
| B8 | 1.73 nM | – |
| B9 | 26.8 nM | 88.5% |
| B10 | 7.19 nM | 97.3% |
| B11 | 28 nM | 88.7% |

target: T1, human GIP receptor; assay: cell-based or functional assay

| Binder | cAMP EC50 (1.0% HSA) | cAMP Emax (1.0% HSA) |
| --- | --- | --- |
| B1 | 0.0875 nM | – |
| B2 | 0.241 nM | 96% |
| B3 | 1.17 nM | 91.4% |
| B4 | 3.88 nM | 91.2% |
| B5 | 0.164 nM | 98% |
| B6 | 0.718 nM | 85.5% |
| B7 | 1.03 nM | 93.3% |
| B8 | 0.0994 nM | 97.5% |
| B9 | 1.09 nM | 91.5% |
| B10 | 0.44 nM | – |
| B11 | 0.592 nM | 90.8% |

target: human glucagon receptor (human, UniProt P47871 26-477); assay: cell-based or functional assay
Sequence (P47871 26-477): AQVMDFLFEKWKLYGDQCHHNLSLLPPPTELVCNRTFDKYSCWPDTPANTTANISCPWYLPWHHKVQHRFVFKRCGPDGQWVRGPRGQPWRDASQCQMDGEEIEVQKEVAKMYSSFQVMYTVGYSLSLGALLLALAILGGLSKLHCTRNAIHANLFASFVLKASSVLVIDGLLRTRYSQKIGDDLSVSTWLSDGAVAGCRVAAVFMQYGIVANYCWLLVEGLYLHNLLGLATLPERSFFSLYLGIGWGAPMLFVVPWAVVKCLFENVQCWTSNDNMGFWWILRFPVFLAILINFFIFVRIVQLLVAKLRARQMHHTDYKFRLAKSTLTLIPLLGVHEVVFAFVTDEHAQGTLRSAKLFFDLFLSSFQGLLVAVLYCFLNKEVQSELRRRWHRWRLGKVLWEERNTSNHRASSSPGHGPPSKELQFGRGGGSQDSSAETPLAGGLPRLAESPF

| Binder | cAMP EC50 (1.0% HSA) |
| --- | --- |
| B1 | > 9950 nM |
| B2 | > 9950 nM |
| B3 | > 9950 nM |
| B4 | > 9950 nM |
| B5 | > 9950 nM |
| B6 | > 9950 nM |
| B7 | > 9950 nM |
| B8 | > 9950 nM |
| B9 | > 9950 nM |
| B10 | > 9950 nM |
| B11 | > 9950 nM |

target: hGLP-1R (Homo sapiens, UniProt P43220); assay: cell-based or functional assay

| Binder | cAMP EC50 | cAMP Emax |
| --- | --- | --- |
| B1 | 0.0549 nM | 106% |
| B2 | 0.102 nM | 98.9% |
| B3 | 0.0781 nM | 103% |
| B4 | 0.206 nM | 97.2% |
| B5 | 0.057 nM | 101% |
| B6 | 0.207 nM | 113% |
| B7 | 0.116 nM | 116% |
| B8 | 0.0837 nM | 104% |
| B9 | 0.342 nM | 93.1% |
| B10 | 0.132 nM | 113% |
| B11 | 0.471 nM | 88.5% |

target: T2, human GIP receptor (human); assay: cell-based or functional assay

| Binder | cAMP EC50 | cAMP Emax |
| --- | --- | --- |
| B1 | 0.00602 nM | – |
| B2 | 0.00714 nM | 102% |
| B3 | 0.00728 nM | 102% |
| B4 | 0.0191 nM | 93.3% |
| B5 | 0.00618 nM | 100% |
| B6 | 0.0115 nM | 104% |
| B7 | 0.00799 nM | 108% |
| B8 | 0.00704 nM | 98.3% |
| B9 | 0.0175 nM | 107% |
| B10 | 0.00958 nM | 101% |
| B11 | 0.0157 nM | 98.9% |

target: human glucagon receptor (human) (UniProt P47871); assay: cell-based or functional assay

| Binder | cAMP EC50 |
| --- | --- |
| B1 | > 9950 nM |
| B2 | > 9950 nM |
| B3 | > 9950 nM |
| B4 | > 9950 nM |
| B5 | > 9950 nM |
| B6 | > 10100 nM |
| B7 | > 9950 nM |
| B8 | > 9950 nM |
| B9 | > 9950 nM |
| B10 | > 9950 nM |
| B11 | > 9950 nM |
